Source: PMC5503811

Legend:
ALDH7A1 G255D (human) = experiment: AUC
[1] = molecular target: wild-type human aldehyde dehydrogenase 7A1 (human); experiment: AUC

Row | Substance | Ka (ALDH7A1 G255D (human)) [M⁻¹] | stoichiometry N [1]
1 | ALDH7A1 G255D (enzyme) | 750000 | –
2 | wild-type human aldehyde dehydrogenase 7A1 (enzyme) | – | 4
